Data from the supplement of paper PMC10567573.
± gives the standard deviation.

Experiment: protein stability index of a GFP-peptide fusion (GPS, HEK-293T) (PSI 1-6); higher = more stable
[1] = treatment: DMSO, c terminus: a fixed tail appended
[2] = treatment: MLN4924 1 uM, 8 h, c terminus: a fixed tail appended
[3] = treatment: DMSO, c terminus: native
[4] = treatment: MLN4924 1 uM, 8 h, c terminus: native
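Note: 24-mer peptide tiles fused after GFP, lentivirally expressed, FACS-sorted into six equal bins by GFP/DsRed ratio, decoded by Illumina sequencing, PSI is the read-weighted mean bin number.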

Sequence	protein stability index [1]	protein stability index [2]	protein stability index [3]	protein stability index [4]
SGTFAPISDRYSPELRQLVLSLLS [NEK8]	2.12 ± 0.21	2.25 ± 0.38		
WTNQQKLYSRTGDIVEFVCKSGYH [CFHR2]	2.46 ± 0.35	2.5 ± 0.33		
IIPRTVIDGLDLLKKEHPGARDGI [SMG5]	3.2 ± 0.31	3.39 ± 0.23		
KMNFIKTYPAHQNRVSAIIFSLAT [WDFY1]	2.65 ± 0.51	2.5 ± 0.37		
LSEAYRVLSREQSRRSYDDQLRSG [DNAJC4]	3.2 ± 0.3	3.03 ± 0.3		
YKGRQLQGCPGAKKHEFLTSVLDA [SMOC2]	3.39 ± 0.42	3.73 ± 0.73		
CILLSALGYLLLGAATNVFLFVLA [MFSD9]	2.53 ± 0.45	2.77 ± 0.27		
YSHRETVNGSWYIQDLCEMLGKYG [CASP6]	1.93 ± 0.39	2.1 ± 0.35		
EKEEDHAPEFIKVRENLRRIATLT [FAM107A]	2.58 ± 0.56	2.81 ± 0.6		
ACTLTVFPPEETTPSPSRESPLSA [KLHL13]	4.35 ± 0.32	4.45 ± 0.15		
KKEMNKSDLNTNNLLFKPPVESHI [KMT2E]	3.47 ± 0.39	4.12 ± 0.26		
TYLVSERLEREERNQTQVLRQQQD [FAF2]	4.97 ± 0.21	4.89 ± 0.072		
FGGVDGLLAGGEKATMQNLNDRLA [KRT17]	3.5 ± 0.32	3.69 ± 0.26		
KKRRMGTYSLVPKKKTKVLKQRTV [EHMT1]	3.27 ± 0.22	3.82 ± 0.4		
KGTFSDVTFKLDDGAISAHKPLLI [RHOBTB1]	2.47 ± 0.32	2.55 ± 0.33		
DSLPMDAYTHGCILHPELTVDSMI [GDAP1]	3.29 ± 0.26	3.47 ± 0.11		
LPQDPHTKKALEAHCRADELASQD [PPP2R5C]	5.04 ± 0.2	5.17 ± 0.27		
WELREKQQLAAEPVPTGFFNMWGF [WDR41]	2.01 ± 0.11	2.37 ± 0.23		
VNPTGNLPMWSNQTWNNSTWSNQT [NANOGP8]	2.75 ± 0.2	2.98 ± 0.35		
QDGVLDLSTKKSPCAGSTSLSHSP [LCOR]	4.95 ± 0.14	4.96 ± 0.2		
EYFFDRNRPSFDAILYYYQSGGRL [KCNA1]	2.52 ± 0.43	2.18 ± 0.29		
LLAGGEKATMQNLNDRLASYLDKV [KRT17]	2.84 ± 0.17	3.08 ± 0.31		
HDGKNQPSKTYPAFLEPDETFIVP [SPSB1]	4.28 ± 0.19	4.25 ± 0.39		

Sequence	protein stability index [1]	protein stability index [2]	protein stability index [3]	protein stability index [4]
QEPQSPQKLNPGFDLAKGNAGKVN [PLAGL1]	5 ± 0.2	4.89 ± 0.39		
SLLDELLEVDHIRTIYHMFIALLI [SOAT1]	2.01 ± 0.27	2.11 ± 0.56		
WIEHSKLREINFKIVEFNPMVLKG [GLT8D2]	2.16 ± 0.1	2.35 ± 0.14		
SHLQAAAQTPPRPGPPSAPPPPPK [SCNN1D]	5.09 ± 0.26	5.22 ± 0.14		
DELTLARTDLEMQIEGLNEELAYL [KRT15]	4.1 ± 0.21	4.42 ± 0.36		
SNPELDVLLLGSVDGRHLLRTLSR [DNAAF3]	2.5 ± 0.28	2.56 ± 0.32		
EDHLAVKHFSVEGQLEFRALLFIP [HSP90AB1]	1.57 ± 0.54			
PKETQPFPKSEQVYLHFLSVVTED [ZNF232]	2.69 ± 0.24	2.99 ± 0.28		
SKSSHPLIRSLFHGFLFMIFQIGV [SOAT1]	2.81 ± 0.84	2.72 ± 0.18		
QYLMASDMAGKIKLWDLRTTKCVR [DCAF4]	2.26 ± 0.11	2.43 ± 0.26		
SRGSSVSMSGGRFRCPTCRHEVIM [TRIM63]	2.43 ± 0.56	2.4 ± 0.38		
FLSFSMYQSFVQFLQYYYQSGCLY [TMEM120A]	3.02 ± 0.39	3.54 ± 0.45		
ERFHGVGILGFNSAEWFITAVGAI [ACSBG2]	2.75 ± 1.1	2.78 ± 1.3		
PMKSAPVMLTLSDSKHVVLPVDDD [RBBP5]	5.08 ± 0.12	5.07 ± 0.08		
YSIDQEFLKEYFPIEVVTEGLLNT [NLN]	2.79 ± 0.24	3.19 ± 0.53		
CRAPPPEARGIRAPPLPDSPQPLA [FCHO1]	4.2 ± 0.6	4.3 ± 0.22		
LRERVKKVKRSLRQARKKGRHLEL [CCDC3]	3.36 ± 0.39	3.58 ± 0.71		
YGVKSPLSLIARFSPIAIDGMSGL [ELAVL3]	2.41 ± 0.091	2.35 ± 0.33		
QPMCEEHEEERINIYCLNCEVPTC [TRIM55]	4.43 ± 0.2	4.31 ± 0.22		
VEADINGLRRVLDELTLARTDLEM [KRT15]	3.29 ± 0.27	3.33 ± 0.39		
QDKPYKCTDCGKSFNHNAHLTVHK [ZNF8]	3.71 ± 0.27	3.72 ± 0.41		
PPDLGAQRRHGWNPKDCSENIEVK [SPSB2]	4.84 ± 0.29	5.03 ± 0.14		
NEEIQSFIYSLKQMLLNVEANSAK [FSD1]	2.99 ± 0.73	2.72 ± 0.38		

Sequence	protein stability index [1]	protein stability index [2]	protein stability index [3]	protein stability index [4]
KVEFTEEEIKTWGTVFQELNKLYP [TPH1]	2.77 ± 0.24	2.91 ± 0.34		
EFLWGPRAHAEIRKMSLLKFLAKV [MAGEA10]	2.38 ± 0.3	2.66 ± 0.17		
PASQHSTPAGLPPSRAKPPTEGAG [FBF1]	5.39 ± 0.3	5.293 ± 0.028		
REEMKLKECVSILPRKESPSVRSS [TNFSF13B]	4.61 ± 0.14	4.73 ± 0.2		
RVKLEEDPDGEEGSSIPWNHLPDP [ZNF24]	5.18 ± 0.2	5.19 ± 0.17		
LEEQFALEAGGYQAGAARLEEELR [PRPH]	5.35 ± 0.49	5.62 ± 0.16		
LRYQETPGPREALSQLRVLCCEWL [ZNF232]	2.13 ± 0.23	2.29 ± 0.22		
SSIIHEIDSILGNKPYSKKDYRS [KCNAB2]			3.02 ± 0.37	3.53 ± 0.28
NASHKLEVRLVPVSFEDPEFKSSF [ATE1]	2.65 ± 0.25	3.18 ± 0.19		
VTIKHVACGDFFTACLTDRGIIMT [NEK8]	2.96 ± 0.5	2.63 ± 0.35		
NRVFSLQDLCCRAIVSCTPVHLID [RAB40C]	2.53 ± 0.26	2.35 ± 0.27		
DEAKKFHLRPELRSQMQGPRTRAR [KLHL12]	4.8 ± 0.1	4.67 ± 0.42		
PLLRWVLTLSFLVATVAVGLYAM [HMOX1]			2.86 ± 0.15	2.57 ± 0.31
VWKHGITPPLKNVRKKRFRKTQKK [TAF7L]	3.46 ± 0.16	3.86 ± 0.17		
VIPECAHGGLYKPVQCHPSTGYCW [SMOC2]	2.38 ± 0.56	2.77 ± 0.9		
EEFAAGPAQSGILSDREVVNLFLH [BTBD1]	3.16 ± 0.56	3.46 ± 0.22		
SEQCYYIFGDLCGNMANLSLHDHD [DVL3]	2.96 ± 0.19	2.91 ± 0.27		
TKQRIQDQKVPYIFRDNQWVGFDD [CHIT1]	3.49 ± 0.47	3.69 ± 0.4		
TQIPADEDTQTDADSSAQAAAQAP [TAF7L]	5.49 ± 0.072	5.51 ± 0.15		
GNFDWVGNDFTQNAGTGLVINQAD [PLD5]	4.7 ± 0.69	4.47 ± 0.27		
TEEDDGFVDILESDLKDDDAVPPG [CDC25B]	5.46 ± 0.27	5.4 ± 0.12		
GSTMLIEAAKGGHTSVVCYLLDYP [ANKRD17]	2.59 ± 0.38	2.55 ± 0.56		
PRTRARLGANEVLLVVGGFGSQQS [KLHL12]	2.17 ± 0.12	1.97 ± 0.58		

Sequence	protein stability index [1]	protein stability index [2]	protein stability index [3]	protein stability index [4]
SSSSSGVLMVGPNFRVGKKIGCGN [CSNK1G1]	3.58 ± 0.34	3.68 ± 0.11		
CLDPIIYFFLCQPFREILCKKLHI [P2RY14]	2.74 ± 0.2	3.252 ± 0.02		
KNFSNNSNLIRHQRIHAAERLCMG [ZNF263]	2.86 ± 0.73	2.73 ± 0.35		
LLRFGVPSPSTLEPHPRPLLQREL [TNXB]	3.08 ± 0.18	2.93 ± 0.23		
CAPYDSRLLGSARPELGAALGIYG [IRX6]	2.56 ± 0.37	2.13 ± 0.55		
CHGMSSQLVRYSADGLLQLGPLGS [GALNT9]	2.32 ± 0.3	2.12 ± 0.21		
IYRFLKLHPRGKNNFSPLHLAVDK [FEM1C]	2.31 ± 0.45	2.25 ± 0.28		
LRNFNSAKDMKKAVAHMKYMGKGS [MATN2]	3.05 ± 0.37	3.43 ± 0.46		
ELRGAEPGRPARLDQLLDMPAAGL [SPSB4]	3.84 ± 0.46	4.02 ± 0.5		
PRLTMHYPCLEKPRIWSLAHTATA [IRX6]	2.31 ± 0.18	2.5 ± 0.11		
SSSSQIGNDSFQLQVTEDVNSSIK [CLCN6]	5.14 ± 0.06	4.87 ± 0.18		
GYEVAAAQGPNKPGYLVGRNNANG [CPN1]	4.2 ± 0.14	4.32 ± 0.21		
WTRNPDDITQEEYGEFYKSLTNDW [HSP90AB1]	3.81 ± 0.15	3.82 ± 0.41		
QATLPVGSPSRPLSRRQLCPLTPG [C2CD2L]	3.61 ± 0.33	3.74 ± 0.14		
EEPELSPAYLISEAMRRSRMSLYC [GFOD1]	2.43 ± 0.23	2.37 ± 0.3		
LRLEEPRMDFAAKLMKNIRFPLMT [KLHL13]	2.31 ± 0.29	2.43 ± 0.37		
TGLMVSLLCLLHFSIVSVAAHLAL [RTN2]	3.27 ± 0.11	2.87 ± 0.27		
PAPTPTPPGRLGAPYSEAWGYFHL [ZBED3]	2.37 ± 0.27	2.23 ± 0.6		
RQRSSLAKINIVYQELNYRSVEEA [SCNN1D]	3.41 ± 0.24	3.44 ± 0.22		
CTDSVVKYELMRPSNKAPLLVLCE [EHMT1]	2.02 ± 0.26	2.22 ± 0.24		
